Laboratory results reported in doi:10.1101/2025.10.01.679806 (bioRxiv, 2025).

Molecular target: the molecule itself
Experiment: methyl-TROSY NMR

B1: Bpa 45-153 (domain or fragment)
chain: AKVMRIGTMIKQLLEEVRAAPLDEASRNRLRDIHATSIRELEDGLAPELREELDRLTLPFNEDAVPSDAELRIAQAQLVGWLEGLFHGIQTALFAQQMAARAQLQQMRQ
For B1, the “stoichiometry N” value was 4.
